# Source: article PMC5458211, “Mitochondrial VDAC1-based peptides: Attacking oncogenic properties in glioblastoma” (Oncotarget, 2017)
# Non-standard residues stand in square brackets, D forms with d. No end group written: not given here.
# T1: Hexokinase II (HK-II), purified (UniProt P52789 1-917, fluorescently labeled using the NanoTemper protein-labeling Kit BLUE)
# T1 construct: hexokinase II (HK-II)
# T1 sequence (looked up): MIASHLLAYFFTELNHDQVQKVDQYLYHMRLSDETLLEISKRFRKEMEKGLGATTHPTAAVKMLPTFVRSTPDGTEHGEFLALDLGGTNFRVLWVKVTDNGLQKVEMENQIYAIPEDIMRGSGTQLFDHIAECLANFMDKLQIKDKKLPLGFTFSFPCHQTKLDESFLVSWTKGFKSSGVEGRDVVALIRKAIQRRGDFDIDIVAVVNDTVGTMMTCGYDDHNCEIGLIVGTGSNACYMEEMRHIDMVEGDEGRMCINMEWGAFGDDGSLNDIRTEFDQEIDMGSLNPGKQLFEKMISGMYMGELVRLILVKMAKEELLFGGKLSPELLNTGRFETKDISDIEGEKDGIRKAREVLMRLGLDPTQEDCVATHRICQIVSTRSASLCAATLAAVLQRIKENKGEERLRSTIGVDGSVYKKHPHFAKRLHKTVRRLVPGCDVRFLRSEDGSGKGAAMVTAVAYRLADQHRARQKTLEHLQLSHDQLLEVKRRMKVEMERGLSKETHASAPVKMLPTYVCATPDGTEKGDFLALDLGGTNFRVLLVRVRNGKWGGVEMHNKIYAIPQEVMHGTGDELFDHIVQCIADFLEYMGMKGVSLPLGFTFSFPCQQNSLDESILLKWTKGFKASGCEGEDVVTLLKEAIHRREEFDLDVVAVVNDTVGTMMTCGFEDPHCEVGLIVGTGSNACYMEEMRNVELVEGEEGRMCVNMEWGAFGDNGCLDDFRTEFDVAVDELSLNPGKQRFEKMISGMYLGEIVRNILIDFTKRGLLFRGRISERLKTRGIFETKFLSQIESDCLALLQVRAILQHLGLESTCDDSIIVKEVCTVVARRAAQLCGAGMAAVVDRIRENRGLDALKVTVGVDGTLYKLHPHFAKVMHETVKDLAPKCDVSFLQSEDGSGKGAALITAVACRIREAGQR
# Molecular target: T1, Hexokinase II (HK-II), purified
# Assay: MST; HK-II (100 nM), fluorescently labelled (NanoTemper Kit BLUE), incubated with Tf-D-LP4 (1-100 μM) for 20 min; MST-grade glass capillaries, Monolith-NT115
# Conditions: both partners purified
binder,measurement,value
"HAIYPRHSWTWE[dK][dK][dL][dE][dT][dA][dV][dN][dL][dA][dW][dT][dA]G[dN][dS][dN]KWTWK (L-amino acids; amino acids added to form a loop-shaped tryptophan zipper (N-terminal half); amino acids added to form a loop-shaped tryptophan zipper (C-terminal half); 34 residues in all; the VDAC1-derived stretch is made of D-amino acids, the rest of L-amino acids; also called VDAC1-based peptide; Tf-D-LP4 peptide; source: synthetic peptide (GL Biochem, Shanghai, >95% purity), dissolved in DMSO) [Tf-D-LP4]",Kd,16.6 µM
